Assay results from the nanobody polyreactivity screen of Harvey et al. (2022).

Experiment: yeast display, Sf9 membrane polyspecificity reagent, FACS + sequencing; frameworks hold sequencing errors
How it was run: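 Nanobodies came from a synthetic yeast display library in Saccharomyces cerevisiae BJ5465, induced with galactose for 36–48 hours and stained for 1 hour at 4 °C with 10% biotinylated, detergent-solubilized Sf9 membrane reagent. Cells were enriched on streptavidin microbeads and then FACS-sorted, with low and high (top ~1%) gates set on anti-HA fluorescence for expression and streptavidin fluorescence for reagent binding. Each polyreactivity label reflects the gate a clone came from. Genes were amplified by colony PCR, sequenced by MiSeq 2 × 250 and filtered by CDR length.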

Row | Sequence | polyreactivity (PSR sort gate)
1 | QVQLVESGGGLVQAGGSLRLSCAASGRIFVYYDMGWYRQAPGKEREVVAAISSTGGSTNYADSVKGRFTISRDNAKNTVYLQMNSLKPEDTAVYYCNAALWRIAYPYGYYQYDYWGQGTQVTVSS | low polyreactivity
2 | QVQLVESGGGLVQAGGSLRLSCAASGSTFYGNMGWYRQAPGKERALVAAITYRGTNTYYADSVKGRFTISRDNAKNTVYLQMNSLKPEDTAVYYCAAEYDVYQGRGRYYGYDYWGQGTQVTVSS | high polyreactivity
3 | QVQLIESGGGLVQAGGSLRLSCAASGSTFYGNAMGWYRQAPGKEREFVAAITGSGDSTDYADSVKGRFTISRDNAKNTVYLQMNSLIPEDTAVYYCNAVGYTPSKPSKFDYWGQGTQVTVSS | low polyreactivity
4 | QVQLVESGGGLVQAGGSLRLSCAASGITFPDYAMGWYRQAPGKERELVATISSSGGNTYYADSVKGRFTISRDNAKNTVYLQMNSLKPEETAVYYCATVSYYCGYDYWGQGTQVTVSS | low polyreactivity
5 | QVQLVESGGGLVQAGGILRLSCASSGRIFTRYAMGWYRPAPGKEREFVAAINYRGSSTYYADSVKGRFTISRDNAKNTVYLQMNSLKPEETAVDYCNTYGQTDTYWRYYYWGQGTQVTVSS | high polyreactivity
6 | QVQLVESGGGLVQAGGSLRLICAASGSIFDWYDMGWYRQAPGKERELVAAITTGGITNYADSVKGRFTFSRDNAKNSVYLQMNSLKPEDTAVYYCNADFSVEFDYWGQGTQVNVSS | low polyreactivity
7 | QVQLVESGGGLVQAGGSLRLSCAASGRIFRYYARGWYRQAPGKEMELVAAISGSGGSTYYADSVKGRFTISRDNAQKTVYLQIHCLKPEDTAVYSCNARYRIPSGEGDHWGQGTQVTVSS | low polyreactivity
8 | QVQLVESGGGLVQAGGSLRLSCAASGLTFQSNAMGWSRQAPGKEREFVAAITSGGNTYYADSVKGRFTISRDNAKNTVYLQMNSLKPEDTAVYYCNADYQDEEDDYWGQGTQVTVSS | low polyreactivity
9 | QVQLVESGGGLVQAGGSLRLSCAASGSIFRHYAMGWYRQAPGKERELVAAISAIGGSTYADSVKGRFTISRDNAKNTVYLQMNSLKPEDTAVYYCNARSYTSYVYHEAGEFDYWGQGTQVTVSS | low polyreactivity
10 | QVQLVESGGGLVQAGGSLRLSCAASGSIFWGIAMGWYRQAPGTERELVAAISWGGGRTYYADSVKGRFTLSRDNAKNTVYLQMNSLKPEDTAVYYCNTRYPYVVSTGYDYWGQGTQVTVSS | high polyreactivity
11 | QVQLVESGGGLVQAGGSLRLSCAASGSIFIVNAMGWYRPAPGKERELVAAISRSGGRTYYADSVKVRFTISRDNAKNTVYLQMNSLKPEDTAVYYCNARSRARKVAYDYWGQGTQVTVSS | high polyreactivity
12 | QVQLVESGGGLVQAGGSLRLSCAASGYIFGRNAMGWYRQAPGKEREFVAAISYSGSSTYYADSVKGRFTISRDNAKNTVYLQMNSLKPEDTAVYYCNAVYYRSRFGTSIRYDYWGQGTQVTVSS | high polyreactivity
13 | QVQLVESGGGLVQAGGSLRLSCAASGRTFEQYSMGWYRQAPGKERELVAAISGSGGSTFYADSVKGRFTISRDNAKNTVYLQMNSLKPEDTAVYYCNAPGDGYLYDHTYDYWGQGTQVTVSS | low polyreactivity
14 | HVQLVESGGGLVQAGASLRLSCAASGSTFSTYGMGCSRQAPGKVRELVADISDSTGSTYYADSVKGRFTISRDNAKYTVYLQMNSLKPEDNAVYYCAADSGEPSWGYDYWGQGTQVTVSS | low polyreactivity
15 | QVQLVDSGGGLVQAGGSLRLSCAASGIIFRTNAMGWYRQAPGKERELVAAIRWSDGSTYYADSVKGRFTISRDNAKNTVYLQMNSLKPEDTAVYYCNAASQYTFDCSFDDWGQGTQVTVSS | low polyreactivity
16 | QVQLVESGGGLVQAGGSLRLSCAASGRIFSYNAMGWYRQEPGKERELVASITSGGGRTYYADSVKGRFTISRDYAKNTVYLQMNSLKPVDTAVYYCAADGEVKYDYWGQGTQVTVSS | low polyreactivity
17 | QVQLVESGGGLVQAGGSLRLSCAASGRIFYQYAMGWYRQAPGKERELVAAIRYRDDGTYYADSVKGRFTISRDNAKNTVYLQMNSLQPEDTAVYYCAAKQWGRYGYWGQGTQVTVSS | high polyreactivity
18 | QVQLVESGGGLVQAGGSLRLSCAASGIIFDDYAMGWYRQAPGKERELVAVISSSGGNTYYADSVKGRFTISRDNAKNSVYLQMNSLKPEDTAVYYCAATYYYKSIYWFEYLGQGTQVTVSS | low polyreactivity
19 | QVQLVESGGGLVQAGGSLRLSCAASGSTFRYYAMGWYRQAPGKERELVAGISSSGGSTYYADSVKGRFTISRDNAKNTVYLQMNSLNPEDTAVYYCIAARGTSRSWAVFADYDYWGQGTQVTVSS | high polyreactivity
20 | QVQLVESGGGLVQAGGSLRLSCAASGRTFYGYAMGWYRQAPGKERELVAAISSNNGRTYYADSVKGRFTISRDNAKNTVYLQMNSLKPEDTAVYYCAAEAVSILWRDYDYWGQGTQVTVSS | low polyreactivity

Row | Sequence | polyreactivity (PSR sort gate)
21 | QVQLVESGGGLVQAGGSLRLSCAASGSTFVHYAMGWYRQAPGKERELVAAITWSGGSTYYADSVKGRFTISRDNAKNTVYLPMNSLKPEDTAVYYCAARNFGAWRWYSYGAHLGSEYWGQGTQVTVSS | low polyreactivity
22 | QVQLVESGGGLVQAGGSLRLSCAASGSIIVRNAMGWYRQAPGKERELVAAISKSGGSTYYADSVKGRFTISRDNAKNTVYLQMNSLKPEDTAVYYCAVYPRSTLRTFQRDYWGQGTQVTVSS | high polyreactivity
23 | QVQLVESGGGLVQAGGTLRLSCAASGSTFPPYAMGWYRQAPGKERELVAAISWRGSSTYYADSVKGRFTISRDNAKNTVYLQMNSLKPEDTAVYYCNADGGGSYWLYEHGFARDYWGQGTQVTVSS | high polyreactivity
24 | QVQLVESGGGLVQAGGSLRLSCAASGRTSKVYAMGWYRQAPGKERELVARITSSGVRTYYADSVKGRFTISRDNAKNTVYLQMNRLKPEDTAVYYCAKDARALWLHSGIYDYWGQGTQVTVSS | low polyreactivity
25 | QVQLVESGGGLVQAGGSLRLSCAASGRTFHSYAMGWYRQAPGKERELVAAIRGRGGTTYYADSVKGRFTFSRDNAKNTVYLQMNSLKPEDTAVYYCNAVVRRYFTAAATYDYWGQGTQVTVSS | high polyreactivity
26 | QVQLVESGGGIVQAGGSLRLSCAASGRIFKWNAMGWYRQAPGKERELVAAISTSRGNTYYADSVKGRFTSSRDYAKNTVYLLMNSLKPEDTAGYYCAATYPISLRQVGYWGQATQVTVSS | high polyreactivity
27 | QVQLVESGGRLVQAGGSLRLSCAASGITFTAYAMGWYRPAPGKERELVATINSTGITNYADSVKGRFTISRDNAKNTVYLQMNSLKPEDTAVYYCAADLLDISSYDGMDYWGQGTQVTVSS | low polyreactivity
28 | QVQLVESGGGLVQAGGSLRLSCAASGSTYGRNARGWYRQAPGKERELVAAISSGGRTYYADSVKGRFTISRDNAKNTVYLQMNSLKPEDTAVYYCARDDYGTLVQLYGRGFNYWGQGTQVTVSS | low polyreactivity
29 | QVQLVESGGGLVQAGGSLRLSCAASGSIFGGYAMGGYRQAPGKERELVAAISWSGDSTYYADSVKGRFTISRDNANNTDYLQMNSLKPEDTAVYYCAAYYLAWYAFRYKTVGSAMDYWGQGTQVTVSS | low polyreactivity
30 | QVQLVESGGGLVQAGGSLRLSCAASGSIFRLYAMGWYRQAPGKEREFVARIRWRGGSTNYADSVKGRFTISRDNAKNTVYLQMNSLKPEDTAVYYCAAKQGTVRAHTYVPWYDYWGQGTQVTVSS | high polyreactivity
31 | QVQLVESVGGLVQAGGSLSLSCAASGSIFIYNARGWYRQAPGKERELVATISSGGSTTYADSVKGRFTISRDNAKNTVYLQMNSLKPEDTAVYYCATYDPPDQYFYLGYYYWGANDYWGQGTQVTVSS | low polyreactivity
32 | QVQLVESGGGLVQSGGSLRLSCAASGITSHPYDMGWSRQAPGKERELVAVITSGGSTSYADSVKGRFTISRDNAKNTVYLQMNRLKPEDTAVYYCNADWFTPAQPWYRYFIRYDYWGQGTEVTVSS | low polyreactivity
33 | QVQLVESGGGLVQAGGSLRLSCAASGSNFSYYDMGWYRQAPGKERELVAAISWNGGTTYYADSVKGRFTISRDNAKNTVYLQMNSLKPEDTAVYYCAATWDFYWAPYDSWGQGTQVTVSS | low polyreactivity
34 | QFQLVESVGGLVQAGGSLRLSCAASGRTGVNAMGWYRQAPRKERELVAAINNGDSTYYADSVKGRFTISRDNAKNTVYLQMNSLKPEDTAVYYCAARSALYPKYESWGQGTQVTVSS | low polyreactivity
35 | QVQLEESGGGLVQAGGSLRLSCAASGFTFYIYALGWYRQAPGKERELVAAISSSGTRTYYADSVKGRFTISRDNAKNTVYLQMNSLKPEDTAVYYCAATRYSWHNRVSRRHRYDYWGQGTQVTVSS | high polyreactivity
36 | QVQLVESGGGLVQAGGSLRLSCAASGTIFSLYAMGWYRQAHGKERELVAAISGSGSSTHYADSVKGRFTISRDNAKNTVYLQMNSLKPEDSAVYYCAATYWTNSYYYWGQGTQVTVSS | low polyreactivity
37 | QDQLVESGGGLVQAGGSLRLSCAASGFIFAYNAMGWYRQGPGKESELVAGITWNGGSTYYADSVKGRFTISRDNAKNSVYLQMNRLKPEETAVYYCAARRTWGYIYRLGYGMDYWGQGTQVTVSS | high polyreactivity
38 | QVHLVESGGGLVQAGGSLRLSCAASGNSLRVYAMGWYRQAPGKERELVAAISYSSVNTYYADSVKGRFTISRDNAKNTVYLQMNSLKPEETAVYYCAADYFYYRRTQYDLRGYPYYYWGQGTQVTVSS | low polyreactivity
39 | QVQLVESWGGLVQSGGSLRLSCAASGSIFSFYPMGWYRQAPGKERELVAAISSGGSTYYADSVKGRFTISRDNAKNTVYLQMNSLKPEDTAVYYCAADQHIRVSWYLQMYYWGQGTQVTVSS | low polyreactivity
40 | QVQLVESGGGLVQAGGSLRLSCAASGIIFGKYAMGWYRPAPGKDRELVAAINYSGSTYYADSVKGRFTISRDNAKNTVYLQMNSLKPEDTAVYYCAARNRTFFQPTYYYWGQGTQVTVSS | high polyreactivity
